Assay results taken from paper PMC6348830, “In Vivo Biokinetics of ^177Lu-OPS201 in Mice and Pigs as a Model for Predicting Human Dosimetry” (Contrast Media & Molecular Imaging, 2019).
Positions of bridges follow the written chain, without caps; N, C: chain ends. Non-standard residues stand in square brackets, D forms with d. Residues, ends and D or L forms follow the SMILES beside them. *: point of attachment. DOTA = O=C(O)CN1CCN(CC(=O)O)CCN(CC(=O)*)CCN(CC(=O)O)CC1; dPhe(4-NHCONH2) = NC(=O)Nc1ccc(C[C@@H](N)C(=O)O)cc1; Dihydroorotyl(S) = O=C1C[C@@H](C(=O)*)NC(=O)N1; Phe(4-Cl) = N[C@@H](Cc1ccc(Cl)cc1)C(=O)O; Phe(4-NH2) = Nc1ccc(C[C@H](N)C(=O)O)cc1

Experiments:
clinical = test: clinical; design: species or system patients (humans); details: both sexes, human, in vivo, total radioactivity
Description: (§1) For analyzing the biokinetics of ^177Lu-labeled peptides in preclinical and clinical studies, the data of ^177Lu-OPS201 athymic nude Foxn1nu mice (28 females, weight: 26 ± 1 g, age: 8–9 weeks), Danish Landrace pigs (3 females-1 male, weight: 28 ± 2 kg, age: 3 months), and patients (3 females-1 male, weight: 61 ± 17 kg, age: 44–77 years) with administered activities of 0.19–0.27 MBq (mice, 0.017 µg of peptide), 97–113 MBq (pigs, 9 µg of peptide), and 850–1086 MBq (patients, 55–106 µg of peptide) were included. For pigs and patients, kidney protection was applied.
After administration of ^177Lu-OPS201, blood samples were taken up to 72 h for mice, up to 300 h for pigs, and up to 23 h for patients in order to measure the blood radioactivity contents by using the same well-type gamma counter (Packard Instruments). […] In order to convert the raw count values to blood uptake values per mL human blood in each time point, human blood data were quantified (in Bq/mL) retrospectively by using the same calibration factor as for the mouse study. […]
To quantify the amount of activity, the average percentage values corresponding to the injected radioactivity (A%) per organ as a function of time were calculated for the liver, right kidney, left kidney, and blood for each species via a manual VOI analysis (for pigs and patients) and via gamma counter (for mice). […]

in vivo = test: in vivo; design: species or system Danish Landrace pigs; details: both sexes, Danish Landrace, pig, total radioactivity
Description: as §1
After administration of ^177Lu-OPS201, blood samples were taken up to 72 h for mice, up to 300 h for pigs, and up to 23 h for patients in order to measure the blood radioactivity contents by using the same well-type gamma counter (Packard Instruments). The human blood data were, originally, provided as relative values, normalized to the first blood sample immediately taken after injection. In order to convert the raw count values to blood uptake values per mL human blood in each time point, human blood data were quantified (in Bq/mL) retrospectively by using the same calibration factor as for the mouse study.
After injection, multiple whole body (WB) planar images and SPECT/CT scans were acquired at 0.5, 2, 3, 4, 50, 100, 150, and 250 h to quantify the uptake in the kidneys and liver. […]

[1] = human, in vivo; cited from earlier work
Description: The fast blood clearance of the OPS201 in the first phase (<56 h) for each species was in agreement with studies of the agonist. […] For humans, most likely because of the short observation period, the value was lower (0.5 h). For the late phase in pigs, our result (58 h) is also close to the results obtained in the human study with the agonist (43 h). Part of an ongoing phase 1 study with ^177Lu-OPS201 in patients with SSTR-posi ...

Structure (SMILES) | tissue uptake dose at 10 min (clinical) | tissue uptake dose at 10 min (in vivo) | half-life of late phase, blood [1] | mean effective half-life of first phase, blood [1]
C[C@@H](O)[C@@H]1NC(=O)[C@H](CCCCN)NC(=O)[C@@H](Cc2ccc(NC(N)=O)cc2)NC(=O)[C@H](Cc2ccc(NC(=O)[C@@H]3CC(=O)NC(=O)N3)cc2)NC(=O)[C@H](NC(=O)[C@H](Cc2ccc(Cl)cc2)NC(=O)CN2CCN(CC(=O)O)CCN(CC(=O)O)CCN(CC(=O)O)CC2)CSSC[C@@H](C(=O)N[C@H](Cc2ccc(O)cc2)C(N)=O)NC1=O [177Lu-OPS201, metal not drawn] ({DOTA}-[Phe(4-Cl)][dC][Phe(4-NH2)](Dihydroorotyl(S))[dPhe(4-NHCONH2)]KTC[dY]-NH2; disulfide 2-7) | < 5 %ID | < 5 %ID |  | 
C[C@@H](O)[C@H](NC(=O)[C@@H]1CSSC[C@H](NC(=O)[C@@H](Cc2ccccc2)NC(=O)CN2CCN(CC(=O)[O-])CCN(CC(=O)[O-])CCN(CC(=O)[O-])CC2)C(=O)N[C@@H](Cc2ccc(O)cc2)C(=O)N[C@H](Cc2c[nH]c3ccccc23)C(=O)N[C@@H](CCCCN)C(=O)N[C@@H]([C@@H](C)O)C(=O)N1)C(=O)O.[177Lu+3] [177Lu-octreotate, DOTA-[Tyr3]octreotate] |  |  | 43 h | 1.6 h
